Laboratory results reported in paper PMC7203701 (ACS Omega, 2020).

T1: DmoB (Arthrobacter globiformis, UniProt H0QJX4)
T1 sequence (H0QJX4 1-171): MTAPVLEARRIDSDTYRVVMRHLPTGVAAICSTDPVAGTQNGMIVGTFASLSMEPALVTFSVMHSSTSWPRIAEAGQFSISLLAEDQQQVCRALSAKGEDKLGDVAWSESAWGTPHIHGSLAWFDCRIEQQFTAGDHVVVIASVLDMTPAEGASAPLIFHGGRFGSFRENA

B1: DmoB (Arthrobacter globiformis NBRC 12137) (protein)
chain: T1 sequence (H0QJX4 1-171)

Columns and labels:
[1] = target: T1, DmoB; assay: fluorescence quenching titration of FMN with DmoB; format: binding
[2] = substrate: Cc1cc2nc3c(=O)[nH]c(=O)nc-3n(C[C@H](O)[C@H](O)[C@H](O)CO)c2cc1C; assay: purified protein; conditions: 50 μM NADH, 20 mM PIPES, pH 7.4, 25 °C
[3] = substrate: Cc1cc2nc3c(=O)[nH]c(=O)nc-3n(C[C@H](O)[C@H](O)[C@H](O)COP(=O)(O)O)c2cc1C; assay: purified protein; conditions: 50 μM NADH, 20 mM PIPES, pH 7.4, 25 °C
[4] = substrate: Cc1cc2nc3c(=O)[nH]c(=O)nc-3n(C[C@H](O)[C@H](O)[C@H](O)COP(=O)(O)OP(=O)(O)OC[C@H]3O[C@@H](n4cnc5c(N)ncnc54)[C@H](O)[C@@H]3O)c2cc1C; assay: purified protein; conditions: 50 μM NADH, 20 mM PIPES, pH 7.4, 25 °C
[5] = substrate: NC(=O)C1=CN([C@@H]2O[C@H](COP(=O)(O)OP(=O)(O)OC[C@H]3O[C@@H](n4cnc5c(N)ncnc54)[C@H](O)[C@@H]3O)[C@@H](O)[C@H]2O)C=CC1; assay: purified protein; conditions: 50 μM FMN, 20 mM PIPES, pH 7.4, 25 °C

Molecule | Kd [1] [nM] | Km [2] [µM] | Vmax [2] [µmol/min/mg] | kcat/Km [2] [M⁻¹ s⁻¹] | Km [3] [µM] | Vmax [3] [µmol/min/mg] | kcat/Km [3] [M⁻¹ s⁻¹] | Km [4] [µM] | Vmax [4] [µmol/min/mg] | kcat/Km [4] [M⁻¹ s⁻¹] | Km [5] [µM] | Vmax [5] [µmol/min/mg] | kcat/Km [5] [M⁻¹ s⁻¹]
Cc1cc2nc3c(=O)[nH]c(=O)nc-3n(C[C@H](O)[C@H](O)[C@H](O)COP(=O)(O)O)c2cc1C [FMN] | 1110 ± 710 |  |  |  |  |  |  |  |  |  |  |  | 
B1 |  | 142 ± 7 | 130 | 283000 | 18 ± 5 | 207 | 3.72e+06 | 84 ± 12 | 153 | 583000 | 2.3 ± 0.5 | 149 | 2.09e+07
